According to patent US20180155451A1 (published 2018):
Substitutions are numbered along the chain they refer to.

B1: GpH7-B3 variant A330_12R/GpL16-k0 (antibody, human IgG1, kappa)
heavy: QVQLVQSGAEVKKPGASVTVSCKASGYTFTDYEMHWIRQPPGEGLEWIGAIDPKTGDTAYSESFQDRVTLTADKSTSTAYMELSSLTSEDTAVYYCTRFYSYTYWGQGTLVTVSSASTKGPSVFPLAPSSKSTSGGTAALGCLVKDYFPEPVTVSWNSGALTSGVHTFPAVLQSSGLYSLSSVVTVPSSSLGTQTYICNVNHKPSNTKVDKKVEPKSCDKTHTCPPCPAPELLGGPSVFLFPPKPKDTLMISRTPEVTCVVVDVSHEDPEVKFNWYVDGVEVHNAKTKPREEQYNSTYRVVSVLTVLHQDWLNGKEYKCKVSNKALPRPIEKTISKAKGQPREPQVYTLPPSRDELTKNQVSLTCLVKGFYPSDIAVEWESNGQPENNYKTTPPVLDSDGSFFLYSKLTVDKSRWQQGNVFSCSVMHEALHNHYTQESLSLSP
light: DIVMTQSPLSLPVTPGEPASISCQASESLVHSNRNTYLHWYLQKPGQSPQLLIYKVSNRFSGVPDRFSGSGSGTDFTLKISRVEAEDVGVYYCSQNTHVPPTFGQGTKVEIERTVAAPSVFIFPPSDEQLKSGTASVVCLLNNFYPREAKVQWKVDNALQSGNSQESVTEQDSKDSTYSLSSTLTLSKADYEKHKVYACEVTHQGLSSPVTKSFNRGEC
notes: homodimerized; mutation in both H chains; also called Ho Ab
B2: GpH7-B3 variant P271_08L/GpL16-k0 (antibody, human IgG1, kappa)
heavy: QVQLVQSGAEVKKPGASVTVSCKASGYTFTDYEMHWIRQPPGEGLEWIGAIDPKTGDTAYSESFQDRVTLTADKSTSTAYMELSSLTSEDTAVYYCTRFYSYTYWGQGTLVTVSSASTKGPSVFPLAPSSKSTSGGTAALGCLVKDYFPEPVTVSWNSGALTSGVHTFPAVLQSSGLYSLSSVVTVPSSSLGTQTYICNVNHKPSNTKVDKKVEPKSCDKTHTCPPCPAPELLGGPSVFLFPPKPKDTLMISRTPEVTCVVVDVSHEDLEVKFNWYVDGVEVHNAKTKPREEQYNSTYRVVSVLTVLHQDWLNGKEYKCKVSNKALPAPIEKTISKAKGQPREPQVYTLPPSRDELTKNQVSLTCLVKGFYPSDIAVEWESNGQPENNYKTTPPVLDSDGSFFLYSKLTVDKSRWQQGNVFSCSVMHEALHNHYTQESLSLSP
light: B1 light
notes: as for B1
B3: GpH7-B3 variant A327_10E/GpL16-k0 (antibody, human IgG1, kappa)
heavy: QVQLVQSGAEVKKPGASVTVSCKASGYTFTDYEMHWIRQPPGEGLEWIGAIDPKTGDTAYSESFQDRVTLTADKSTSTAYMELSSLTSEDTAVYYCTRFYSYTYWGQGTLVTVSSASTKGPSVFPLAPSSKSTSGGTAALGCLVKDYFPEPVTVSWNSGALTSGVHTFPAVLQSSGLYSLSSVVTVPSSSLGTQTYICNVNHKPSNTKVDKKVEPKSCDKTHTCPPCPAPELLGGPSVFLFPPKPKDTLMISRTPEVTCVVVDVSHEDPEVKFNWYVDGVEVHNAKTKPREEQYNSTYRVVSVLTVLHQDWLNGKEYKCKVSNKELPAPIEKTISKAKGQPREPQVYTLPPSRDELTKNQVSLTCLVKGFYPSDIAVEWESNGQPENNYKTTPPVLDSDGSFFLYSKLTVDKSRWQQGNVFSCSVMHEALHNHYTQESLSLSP
light: B1 light
notes: as for B1
B4: GpH7-B3 variant L235_20W/GpL16-k0 (antibody, human IgG1, kappa)
heavy: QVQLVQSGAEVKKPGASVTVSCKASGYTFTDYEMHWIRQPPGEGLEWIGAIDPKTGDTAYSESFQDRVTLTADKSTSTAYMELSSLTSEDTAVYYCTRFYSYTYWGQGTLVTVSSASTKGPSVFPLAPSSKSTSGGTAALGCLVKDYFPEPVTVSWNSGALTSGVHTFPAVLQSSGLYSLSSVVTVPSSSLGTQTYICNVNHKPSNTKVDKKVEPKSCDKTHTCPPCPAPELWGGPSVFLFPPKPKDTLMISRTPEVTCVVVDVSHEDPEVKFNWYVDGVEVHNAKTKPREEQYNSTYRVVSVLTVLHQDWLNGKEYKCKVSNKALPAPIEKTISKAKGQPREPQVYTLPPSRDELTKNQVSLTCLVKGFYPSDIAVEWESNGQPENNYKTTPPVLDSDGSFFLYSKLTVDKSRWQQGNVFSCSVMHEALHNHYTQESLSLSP
light: B1 light
notes: as for B1
B5: GpH7-B3 variant K326_03V/GpL16-k0 (antibody, human IgG1, kappa)
heavy: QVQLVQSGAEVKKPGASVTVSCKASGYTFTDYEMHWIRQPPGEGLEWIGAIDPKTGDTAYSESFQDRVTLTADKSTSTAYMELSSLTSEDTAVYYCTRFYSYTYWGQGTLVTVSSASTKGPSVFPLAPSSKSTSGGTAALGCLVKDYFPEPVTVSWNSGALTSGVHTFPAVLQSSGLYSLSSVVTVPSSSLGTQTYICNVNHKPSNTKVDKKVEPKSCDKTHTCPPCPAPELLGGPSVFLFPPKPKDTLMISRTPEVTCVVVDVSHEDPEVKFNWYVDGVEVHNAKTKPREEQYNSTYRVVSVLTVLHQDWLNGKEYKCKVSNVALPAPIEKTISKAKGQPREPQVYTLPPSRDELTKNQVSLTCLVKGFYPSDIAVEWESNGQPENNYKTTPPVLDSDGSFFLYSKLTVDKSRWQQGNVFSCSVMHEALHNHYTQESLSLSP
light: B1 light
notes: as for B1
B6: GpH7-A5/GpH7-B3 variant T335_13S/GpL16-k0 (antibody, human IgG1, kappa)
heavy 1: not shown
heavy 2: not shown
light: B1 light
notes: also called He Ab T335_13S
B7: GpH7-A5/GpH7-B3 variant S324_20W/GpL16-k0 (antibody, human IgG1, kappa)
heavy 1: not shown
heavy 2: not shown
light: B1 light
notes: also called He Ab S324_20W
B8: GpH7-A5/GpH7-B3 variant T335_07I/GpL16-k0 (antibody, human IgG1, kappa)
heavy 1: not shown
heavy 2: not shown
light: B1 light
notes: also called He Ab T335_07I
B9: GpH7-A5/GpH7-B3 variant S337_16H/GpL16-k0 (antibody, human IgG1, kappa)
heavy 1: not shown
heavy 2: not shown
light: B1 light
notes: also called He Ab S337_16H
B10: GpH7-A5/GpH7-B3 variant T335_15Y/GpL16-k0 (antibody, human IgG1, kappa)
heavy 1: not shown
heavy 2: not shown
light: B1 light
notes: also called He Ab T335_15Y
B11: GpH7-A5/GpH7-B3 variant Q295_07I/GpL16-k0 (antibody, human IgG1, kappa)
heavy 1: not shown
heavy 2: not shown
light: B1 light
notes: also called He Ab Q295_07I
B12: GpH7-A5/GpH7-B3 variant P271_01G/GpL16-k0 (antibody, human IgG1, kappa)
heavy 1: not shown
heavy 2: not shown
light: B1 light
notes: also called He Ab P271_01G
B13: GpH7-A5/GpH7-B3 variant S324_09D/GpL16-k0 (antibody, human IgG1, kappa)
heavy 1: not shown
heavy 2: not shown
light: B1 light
notes: also called He Ab S324_09D
B14: GpH7-A5/GpH7-B3 variant L328_13S/GpL16-k0 (antibody, human IgG1, kappa)
heavy 1: not shown
heavy 2: not shown
light: B1 light
notes: also called He Ab L328_13S
B15: GpH7-A5/GpH7-B3 variant T335_16H/GpL16-k0 (antibody, human IgG1, kappa)
heavy 1: not shown
heavy 2: not shown
light: B1 light
notes: also called He Ab T335_16H
B16: GpH7-A5/GpH7-B3 variant T335_19Q/GpL16-k0 (antibody, human IgG1, kappa)
heavy 1: not shown
heavy 2: not shown
light: B1 light
notes: also called He Ab T335_19Q
B17: GpH7-A5/GpH7-B3 variant T335_10E/GpL16-k0 (antibody, human IgG1, kappa)
heavy 1: not shown
heavy 2: not shown
light: B1 light
notes: also called He Ab T335_10E
B18: GpH7-A5/GpH7-B3 variant S324_06M/GpL16-k0 (antibody, human IgG1, kappa)
heavy 1: not shown
heavy 2: not shown
light: B1 light
notes: also called He Ab S324_06M
B19: GpH7-A5/GpH7-B3 variant S324_02A/GpL16-k0 (antibody, human IgG1, kappa)
heavy 1: not shown
heavy 2: not shown
light: B1 light
notes: also called He Ab S324_02A
B20: GpH7-A5/GpH7-B3 variant S337_10E/GpL16-k0 (antibody, human IgG1, kappa)
heavy 1: not shown
heavy 2: not shown
light: B1 light
notes: also called He Ab S337_10E
B21: GpH7-A5/GpH7-B3 variant S267_02A/GpL16-k0 (antibody, human IgG1, kappa)
heavy 1: not shown
heavy 2: not shown
light: B1 light
notes: also called He Ab S267_02A
B22: GpH7-A5/GpH7-B3 variant S337_14T/GpL16-k0 (antibody, human IgG1, kappa)
heavy 1: not shown
heavy 2: not shown
light: B1 light
notes: also called He Ab S337_14T
B23: GpH7-A5/GpH7-B3 variant L328_14T/GpL16-k0 (antibody, human IgG1, kappa)
heavy 1: not shown
heavy 2: not shown
light: B1 light
notes: also called He Ab L328_14T
B24: GpH7-A5/GpH7-B3 variant S324_10E/GpL16-k0 (antibody, human IgG1, kappa)
heavy 1: not shown
heavy 2: not shown
light: B1 light
notes: also called He Ab S324_10E
B25: GpH7-A5/GpH7-B3 variant T335_01G/GpL16-k0 (antibody, human IgG1, kappa)
heavy 1: not shown
heavy 2: not shown
light: B1 light
notes: also called He Ab T335_01G
B26: GpH7-A5/GpH7-B3 variant S337_09D/GpL16-k0 (antibody, human IgG1, kappa)
heavy 1: not shown
heavy 2: not shown
light: B1 light
notes: also called He Ab S337_09D
B27: GpH7-A5/GpH7-B3 variant S239_09D/GpL16-k0 (antibody, human IgG1, kappa)
heavy 1: not shown
heavy 2: not shown
light: B1 light
notes: also called He Ab S239_09D
B28: GpH7-A5/GpH7-B3 variant Q295_05P/GpL16-k0 (antibody, human IgG1, kappa)
heavy 1: not shown
heavy 2: not shown
light: B1 light
notes: also called He Ab Q295_05P

Target: T1, FcγRIIa R (extracellular domain with a His tag at the C terminus) (human, UniProt P12318 34-217)
T1 construct: extracellular domain; expressed in FreeStyle293 cells; also called FcgRIIa R; FcγRIIa type R; not shown: His tag at the C terminus
T1 sequence (looked up): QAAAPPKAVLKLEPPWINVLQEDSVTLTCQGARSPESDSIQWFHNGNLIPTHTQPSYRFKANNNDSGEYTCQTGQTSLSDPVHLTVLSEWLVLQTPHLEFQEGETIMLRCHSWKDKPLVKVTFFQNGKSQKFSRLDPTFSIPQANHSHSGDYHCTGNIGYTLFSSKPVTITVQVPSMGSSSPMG
Assay: SPR Biacore, relative binding

Going from B1 to B2, the Ho/Con_2aR rises from 101 % of GpH7-B3/GpL16-k0 (=100) to 102 % of GpH7-B3/GpL16-k0 (=100).

Compared with B3, B4 is higher in Ho/Con_2aR: 104 % of GpH7-B3/GpL16-k0 (=100) for the first, 114 % of GpH7-B3/GpL16-k0 (=100) for the second.

B5 was tested, and the Ho/Con_2aR was 139 % of GpH7-B3/GpL16-k0 (=100).

Target: T2, FcγRIIa H (human, UniProt P12318 34-217)
T2 construct: extracellular domain; also called FcgRIIa H type; 2aH; not shown: His tag at the C terminus
T2 sequence (looked up): T1 sequence (looked up) with R134H
Assay: SPR Biacore, relative binding

First: B6
Second: B7
The He/Con_2aH of the first is higher: 106 % of GpH7-A5/GpH7-B3/GpL16-k0 (=100) for the first, 103 % of GpH7-A5/GpH7-B3/GpL16-k0 (=100) for the second.

Compared with B8, B9 is lower in He/Con_2aH: 108 % of GpH7-A5/GpH7-B3/GpL16-k0 (=100) for the first, 101 % of GpH7-A5/GpH7-B3/GpL16-k0 (=100) for the second.

Going from B10 to B11, the He/Con_2aH falls from 106 % of GpH7-A5/GpH7-B3/GpL16-k0 (=100) to 102 % of GpH7-A5/GpH7-B3/GpL16-k0 (=100).

Compared with B12, B13 is lower in He/Con_2aH: 107 % of GpH7-A5/GpH7-B3/GpL16-k0 (=100) for the first, 106 % of GpH7-A5/GpH7-B3/GpL16-k0 (=100) for the second.

Compared with B14, B15 is lower in He/Con_2aH: 123 % of GpH7-A5/GpH7-B3/GpL16-k0 (=100) for the first, 105 % of GpH7-A5/GpH7-B3/GpL16-k0 (=100) for the second.

First: B16
Second: B17
The He/Con_2aH of the first is lower: 103 % of GpH7-A5/GpH7-B3/GpL16-k0 (=100) for the first, 108 % of GpH7-A5/GpH7-B3/GpL16-k0 (=100) for the second.

Compared with B18, B19 is lower in He/Con_2aH: 117 % of GpH7-A5/GpH7-B3/GpL16-k0 (=100) for the first, 102 % of GpH7-A5/GpH7-B3/GpL16-k0 (=100) for the second.

Compared with B20, B21 is higher in He/Con_2aH: 102 % of GpH7-A5/GpH7-B3/GpL16-k0 (=100) for the first, 120 % of GpH7-A5/GpH7-B3/GpL16-k0 (=100) for the second.

First: B22
Second: B23
The He/Con_2aH of the first is lower: 103 % of GpH7-A5/GpH7-B3/GpL16-k0 (=100) for the first, 116 % of GpH7-A5/GpH7-B3/GpL16-k0 (=100) for the second.

B24 and B25 are the same in He/Con_2aH: 103 % of GpH7-A5/GpH7-B3/GpL16-k0 (=100) for the first, 103 % of GpH7-A5/GpH7-B3/GpL16-k0 (=100) for the second.

First: B26
Second: B27
The He/Con_2aH of the first is lower: 107 % of GpH7-A5/GpH7-B3/GpL16-k0 (=100) for the first, 114 % of GpH7-A5/GpH7-B3/GpL16-k0 (=100) for the second.

For B28, the He/Con_2aH was 103 % of GpH7-A5/GpH7-B3/GpL16-k0 (=100).
